Laboratory results published in the DeepSol protein solubility set.

Assay: soluble on expression in E. coli; label from the status in PepcDB or PDB records

| Sequence | soluble on expression in E. coli |
| --- | --- |
| MSAEAVAAAPIAEEATPVVYYSIESNDRVVLKISEQAIKQSATLSNSITNLGYSAENAESMVPIPIEKVNGKTLKLVVEWCEHHKADPVPEAYPSGNTVLPVWDRKFVDIEHDALTDLVNASNFLEVMTLLTYCCKFIAGLAKGMSPEEMRVFFCIPTDEEDEKAERFGKEKTEASATSADTTA | not soluble |
| MSAEGFLAEHAHRRPSSRRRRAAQFGSPLTPGQDETVSDRTTADLERELAMLAYVRDRLRASEGEGFRIPTTAVDQVLDERNSLERSPWDPT | not soluble |
| MSAETATIPEVSNQETKAEKVIADSLEAKKDESAAVEINGSSTHENGDTNIEKKTEEPVVEAKVSEEPATTSETPAAQVTESQKDEKTDDAPAEPAEVAVEAAKEEPVVEEKKEDAPEPVVTEEKKSEEAPAPEEKKSEEVVAAEEKKEPAAVVEEKKEVPETPVVEDKKEEAPASSEEKKDEPVVNTEEKKDAAEAPAADEESEAAEEKVAETTVAPVATPSGRGRGRGRGRPPGPNATPKAAASEKKRAAKPKAAVNPESIAASRPRRSTSNRIDYANSDTSTVLAEVDDEIPGKLFRGRKPPRGKITKYVSDSDGAPSDEDDVDFGKKKKGAPSTRGRGRPPSSNRPTRAAATKRSAKDASDESNEDEIEYDDKSDEDVSPRKKARGAPARAAADDEDDEGEEMDASEEVEA | not soluble |
| MSAIDCIITAAGLSSRMGQWKMMLPWEQGTILDTSIKNALQFCSRIILVTGYRGNELHERYANQSNITIIHNPDYAQGLLTSVKAAVPAVQTEHCFLTHGDMPTLTIDIFRKIWSLRNDGAILPLHNGIPGHPILVSKPCLMQAIQRPNVTNMRQALLMGDHYSVEIENAEIILDIDTPDDFITAKERYTEILEHHHHHH | soluble |
| MSAMNARQGILSLALKDKPALYSAYMPFVKGGGIFVPTPKRYMLGDEVFLLLTLPDSSERLPVAGKVIWTTPAGAQGNRAAGIGVQFPDGPEGEAVRNKIETLLAGLTTSDKPTHTM | soluble |
| MSAPWETLLDWWFGTSSDAAEVVAQRNGLWFGKNVCQDADAGGRFGDLVNQALDGGLQEWTAEADGWLALILLLDQLPRMIYRDTPRAYAGDARAQRVVREGLEKGFDRQLPPVRRVFAYLVLEHAEDLPSQERAVACFRDLRDQVGGSVRKPFDDFYDYAERHHAVVARFGRFPHRNAILGRPSSEEETAFLREPGSRF | not soluble |
| MSASSSSALPPLVPALYRWKSTGSSGRQVQRRCVGAEAIVGLEEKNRRALYDLYIATSLRNIAPASTLLTLQNLKEMFELALLDARFEHPECACTVSWDDEVPAIITYESPESNESARDWARGCIHVQPTAKSALDLWSEMEEGRAAANDNTPSKSIELFLLSDVSTDSTPIPQDATVEILFHSNHLFWDGIGCRKFVGDLFRLVGSYIGRSDSREMKKIQWGQEIKNLSPPVVDSLKLDINTLGSEFDDKCTEYTSALVANYKSRGMKFQPGLALPRCVIHKLSADESIDIVKAVKTRLGPGFTISHLTQAAIVLALLDHLKPNDLSDDEVFISPTSVDGRRWLREDIASNFYAMCQTAAVVRIENLKSITVSHKDEKELQVRALESACRNIKKSYRQWLENPFLQALGLRVHNFEASYLHAKPIPFEGEANPLFISDGINERFIPHEIKQTATGENVLSVESIDFVVNQSLPYLAIRLDSWRDASTLNIIYNDANYTEAEVQKYLQSIVEFMLAFRL | soluble |
| MSATETKYVPRLYKKYKEEVVPILQKKFNYKSPMQIPRLQKIVVNMGVGEAVQDIRQLERAVEDLRAITGQQPVITRARKSEAGFKLRKGMPIGCKVTLRKERMWDFLDKLISVALPRVKDFKGLSPRSFDGRGNYAFGIAEQIVFPEIDYDKVDRIRGMDIIINTTAETDEEAFWLLSLLGLPIRSM | soluble |
| MSAYIAPSQIAQRQLEYFNGKHVLVAGEVEDMFPLELTAHCESVEVFTSNYSYFRQIRHSDKIKSHFGSEFDVETQADMLLLYWPKAKAEAEYLLAMLMAKLGVNTEIVVVGENRSGVKSIEKMFKEYGPVNKYDSARRCSFYWGNCLNEPKPFNQEEWFKSYTVTLGEQSLTVKSLPGVFSHGEFDLGSRLLLETLPNLSGKVLDFGCGAGVLGAFMAKANPEIAIEMCDINAYAITSSQATLEANGLSGRVFASDIYSDTANDYRFIISNPPFHSGLDTNYNAAETLLGHAPQHLSNHGEMIIVANSFLKYPPIIENAFNNCETLNKTNKFSIYYAKKS | not soluble |
| MSDALVWQVIRNNSAFLRTQRGIGKRFSTEKFNLKKVNSPKYSGLANKHAIDVSAAAKGVVVSTKNEKGRPAKAVTTSTLSKTPVASVRRLAKNAGFNKFNKLAQRRAAAIVRSQVKKAKVQKTDA | not soluble |
| MSDDALSRIAAALERMSPPPMPAPDFSAVDAFAWHTSPDRLEPVPRVARVDLSLLVGVNRARDILLDNTEHFARGLPANNALLWGSRGMGKSSLVKAIHAAVVAKGLPLKIVELSREDLPSVQRLLKHLRGAPFRFILFCDDLSFSHDDQHYKSLKAVLDGGIEGRPENVILYATSNRRHLMPRDMIENERSTAISPSEAVEEKVSLSDRFGLWLGFHPCSQDEYLEMIRGYCAAHGLSVAEEELRAEAIEWQATRGARSGRVAWQFFTDLAARHGVALLEHHHHHH | not soluble |
| MSDDLSAFFAKKKDKKKKSAVKIEEVGQALERRAKRQEEYEQESEDVSEKRVEEEKAVNPNEESEWIEYGESQGRLDGLKIKDMGLESEQDQVNNEEPEDREVHETKTWGQVSSEKKATEEPEQAVTISDKAMAAAYKPPAMRRPGAPYRPRAAAANLDMGSDAAFPSLADASKIEKNKKEESKSPGGWVKAGSGGAWPGSSGPSSSGSSRSYPTTAGSGRDSALAALKMMSAANPAPARNEPAPAPAAAAPASSGAAKAGSYVPPHLRKNQ | not soluble |
| MSDEKKSTDIDLKNLKAGGFIKERGKDLFTVRLRVPGGRMPVARLKKIAEVAEKYGQGMVHLSVRQSVELININFRDFDAVVAELGEGTQKVASCGARVRVPTACGGCEYNPNGLVDTQKSALEVDEKLFGTSTGHHKFKVGFAGCPFDCPKSATNDVGFQGAIWPVLYADECIGCGLCDKSCTEDAIVMGDDGKPRFIPENCLYCGDCLKVCPSEAWRAEKKGYTVRIGGKWGRRPLVGTLFAEFLPEEQVFDFIAAVLDWYKEKAEGQGRIRLGDVIRAEGPDALLGYLRERFPAAVVDATIPPQRIATQIGKEKRVPLEHHHHHH | soluble |
| MSDENLETESTSKALEDILSYTDSPAFRHIFSFFLGRPRIRAKSTLNLDILSEEVVIRKGKLIHTWQNARAVFYNSNIRLQTKNNQDEALQIRNMKVDVHESKRGRALRLKDDDVCYLIIFQRPNILEAWLTRAQQVEKSNHVDASDEQLTLIPEQILNNEARVQILNLRRNSLISRPPTEKSMAPLGYIDDLYRVHSLQVIDLSANQILSFPIQLTLLSHLRQLNLSSNYISSVPSECSNMRRLQYLNLSNNQLDTLPDSISELQNLQSLDISFNQFSQIPPCLFHLTLEMWRLAGNNIEKIDRVGEMQIQKIDLRRNVLDTSFRLDIENITHLDLRDNSMISTVHLTNLRFLKVIHCERLQLSSLHLSGESLTHVYADHNLLDSLVVMPLPQNLQTLSLSFNHFRNLPDWISDCPNLTFLRANNNSLVALPERIFYSQSLRSIFAFINEIEHIPDFGEENCLETLILYKNKLSSLPKHFFSILPRLRQLNISSNFIELLPYFDGSSFCRLQILRCANNYLTENSVPVIVNMKHLKIIDLSHNRLNSFDDSALSSLELLEDLNLSSNRLTRLADCLALLPCLQVLRAHSNQLVHVPEFRASNQLHTIDVSSNNISLGTLQFKAPPNLRHFDVTCNSGDFDTENFPENAKMHSKMNTINISEGSQNLFGFQIGVSGSRGMKNKQCIRQVRVENTFGFIDGGSNSYMSSSICRFMTSYLKENVSMDIRSILLRCHCELGEEGERLGASVMIIRVHEKRLEIASTGTMSAAIARNQKLKMIINGRYEIDDDEYSRIREAHGFVDEENRINGVIGSSRQIGHFSTFPVVLPTHSYRNIQLNEQIEGLIVGNNMIWNMLSIDDLNSTFHNNRSPIVVAKKIQDQLQSYDYGGNSNILVLRRIKPQMTFNGFSTSSTKNQVTPDIAIPKIDEQLVLAVPALILPEYHPSPPVPPPIPAIRHRTPSPPPPPLPSSTPPPVSSEHEEINVRQSSTLSGGYTLSIDRFYSSSSTVSSRKQFNETRDLLSKSLKLSPPNTVTFNI | not soluble |
| MSDGHHNGHEHVPSRQRRRFPGISSRAYEHPADRSALVALRKLSGFDTVFKALSGLLPERSLRLLFLSDSVRVSDRQFAHLNVMLRDACYILDLEKVPPMYVNQDPVPNAMCIGLDEPIIVVTTGLVELLDEEEMRAVVGHEVGHALSGHAVYRTILLFLTSLAVRVAWIPLGNVAIMAIVTALREWFRKSELSADRAGLLVGQDLQASMRGLMKIAGGNHLHEMNVDAFLEQAEEYEAGGDLRDSVLKILNVLPRSHPFTTVRAAELKKWAASRDYQRIMDGHYPRRDEDRNTSVRDSFRESASHYATHVRSSKDPLMKLVNDIAGGAGDLGDRMRRGFGGFTGSQPRPPEDDGGPAQGPGGSGRPDGPDRPEGPEGSGGSEEPGGDGPESPRDGSPRDGALEHHHHHH | not soluble |
| MSDGKIIHDPVHGSMKIPEELIKLVDTPEIQRLRYIRQLGLANLVYPGANHSRFEHSLGVWYLAKKLSSELDIPRDEALLVQISALLHDIGHGPFSHTFERVYKERLKIGDHMEISRKIIEGKIDIVENGGEIPDIISDLGYSPKEVGELICGVHKKKYLSMIINGDIDVDQLDYLARDAHYTGVAHGIIDLERLLNVMKIHDNELVVDEKGLEAVEGMLVARSLMYSRVYFHRTVKIAEAMLIKGVEFALDSGELFDFWKMTDDRLIVELEDIGGFPSEIIQKIRRRELYKPAVIVGPQDLTGDERRIIASLYKNTKKIRELENELADRVGASEGEVIIELSVPELIISEPRLKQIEISILLGDGKKEPLTKVTPLASAIKRRQTPRWILIIATPPNYVEKVKSVWRKVIF | not soluble |
| MSDHENTGENTSEYQYKQPPQKSIDELLNADKEDESLKVYKAKLLGQGTVIVDEKNPLRVIVRSVELLINGKTAQSFDLSDPAKLVNSDLSVSIKEGSNYRLSFAFHVQREITSGLHYKHKVKRSGITVENEKYMMGSYAPKLEIQEYKSPNEEAPSGMMHRGKYKVYSKITDDDNNVYLDWQWTLHITKE | not soluble |
| MSDIEAVVVSDLHLGYEEEMNLHGLFLPRIQRDHITSVMDRIIERYNPQRIIINGDFKQEFSKNLPSEWTDVLYFIDRYDDRDLIFIRGNHDNYLATILSKKNIGMMDFYEDDRYFIYHGDRNMGIKKITILGHEHPSLVLRDRVGGVYKLPAFAFNFRRNVIITPSMSFFSSGTDLSQSLLSEEHFTPALKGMKPSCFRIFAITDEFGLVDFGYLDDLHSSGEQQIRDR | not soluble |
| MSDILKCIGCGAPLQSEDKNKPGFVPEHNMFRDDVICRRCFRLKNYNEVQDVGLESEDFLKLLSGLADKKGIVVNVVDVFDFEGSFINAVKRIVGNKKIILAANKLDLLPKQINKRRVKEWLKRTARKYGLEADDVVLISAEKGWGIDDLLSSIANIRENEDVYIVGTTNVGKSTLINKLIEASVGEKDVVTTSRFPGTTLDMIDIPLDESSFMYDTPGIIQDHQMTHLVSEKELKIIMPKKEIKQRVYQLNEAQTLFFGGLARIDYVSGGKRPLVCFFSNDLNIHRTKTEKANDLWRNQLGDLLTPPGNPQNFDLNELKAVRLETGKEKRDVMISGLGFITIGPGAKVIVRVPKNVDVVLRNSILLEHHHHHH | soluble |
